In paper PMC10786891, “Massively parallel profiling of RNA-targeting CRISPR-Cas13d”:

T1: EsCas13d, nuclease-dead (Eubacterium siraeum, UniProt B0MS50, R295A;H300A;R849A;H854A)
T1 sequence: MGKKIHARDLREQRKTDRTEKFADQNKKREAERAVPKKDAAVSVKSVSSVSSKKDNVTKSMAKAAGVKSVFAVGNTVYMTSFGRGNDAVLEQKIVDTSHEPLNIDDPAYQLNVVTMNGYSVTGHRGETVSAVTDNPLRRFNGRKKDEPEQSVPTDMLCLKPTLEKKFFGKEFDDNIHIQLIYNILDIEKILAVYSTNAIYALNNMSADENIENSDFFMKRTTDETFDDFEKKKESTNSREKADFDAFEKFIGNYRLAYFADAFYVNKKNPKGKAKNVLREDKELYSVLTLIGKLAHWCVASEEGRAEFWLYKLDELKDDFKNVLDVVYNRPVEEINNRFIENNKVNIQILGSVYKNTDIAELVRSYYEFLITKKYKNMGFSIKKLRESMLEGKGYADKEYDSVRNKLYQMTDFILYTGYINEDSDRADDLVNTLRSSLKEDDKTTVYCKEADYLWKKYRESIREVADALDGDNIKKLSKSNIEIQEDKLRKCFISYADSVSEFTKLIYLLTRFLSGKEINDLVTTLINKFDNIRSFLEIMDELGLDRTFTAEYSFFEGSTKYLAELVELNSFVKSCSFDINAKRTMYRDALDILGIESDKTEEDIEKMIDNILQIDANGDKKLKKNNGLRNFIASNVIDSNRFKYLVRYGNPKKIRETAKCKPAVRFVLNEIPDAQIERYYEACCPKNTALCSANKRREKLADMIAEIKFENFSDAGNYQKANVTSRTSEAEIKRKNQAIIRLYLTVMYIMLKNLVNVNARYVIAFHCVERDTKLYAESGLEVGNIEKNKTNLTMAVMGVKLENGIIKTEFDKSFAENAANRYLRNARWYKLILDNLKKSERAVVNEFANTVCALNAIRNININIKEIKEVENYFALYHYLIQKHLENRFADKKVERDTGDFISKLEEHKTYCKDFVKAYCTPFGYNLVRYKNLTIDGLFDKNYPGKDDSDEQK


Target: T1, EsCas13d, nuclease-dead
Test: crRNA (strand 1, pre-loaded); Mg2+; 40 mM Tris-HCl pH 7.5, 150 mM NaCl, 6 mM MgCl2, 1 mM DTT, 0.1% Tween-20, 0.2 mg/ml BSA; 25 C; 10 min per concentration, then washed
Conditions: tags: His6-TwinStrep-SUMO cleaved; N-terminal SNAP kept (SNAP-Surface 488); label: 3' end held by stalled T7 RNA polymerase

Binder	Kd
target 1 U10A,C22U (mixed) RNA 1: CACCCGUGCAAAAAUGCAGGGGUCUAAAACUGAGCGGAUAACCUCUCUAUGG RNA 2: GGGAAUGGAUCCACAUCUACGAAUUCGUAUCAUAGAGAGGUAAUCCGCUCACCGAGAUCGGAAGAGCACACGU	20.8 ± 2.8 nM
target 1 insG 3' of 16,insA 3' of 6 (mixed) RNA 1: CACCCGUGCAAAAAUGCAGGGGUCUAAAACUGAGCGGAUAACCUCUCUAUGG RNA 2: GGGAAUGGAUCCACAUCUACGAAUUCGUACCAUAGAGGAGGUUAUCCAGCUCACCGAGAUCGGAAGAGCACACGU	15 ± 0.6 nM
target 1 C4G,G12C (mixed) RNA 1: CACCCGUGCAAAAAUGCAGGGGUCUAAAACUGAGCGGAUAACCUCUCUAUGG RNA 2: GGGAAUGGAUCCACAUCUACGAAUUCGUACCAUAGAGAGCUUAUCCGGUCACCGAGAUCGGAAGAGCACACGU	18 ± 4 nM
target 1 C7A,U8A (mixed) RNA 1: CACCCGUGCAAAAAUGCAGGGGUCUAAAACUGAGCGGAUAACCUCUCUAUGG RNA 2: GGGAAUGGAUCCACAUCUACGAAUUCGUACCAUAGAGAGGUUAAACGCUCACCGAGAUCGGAAGAGCACACGU	7.41 ± 0.23 nM
target 1 insA 3' of 22,insU 3' of 5 (mixed) RNA 1: CACCCGUGCAAAAAUGCAGGGGUCUAAAACUGAGCGGAUAACCUCUCUAUGG RNA 2: GGGAAUGGAUCCACAUCUACGAAUUCGUACACAUAGAGAGGUUAUCCGUCUCACCGAGAUCGGAAGAGCACACGU	28 ± 7 nM
target 1 C4A,C22G (mixed) RNA 1: CACCCGUGCAAAAAUGCAGGGGUCUAAAACUGAGCGGAUAACCUCUCUAUGG RNA 2: GGGAAUGGAUCCACAUCUACGAAUUCGUAGCAUAGAGAGGUUAUCCGAUCACCGAGAUCGGAAGAGCACACGU	25 ± 8 nM
target 1 insC 3' of 12,insG 3' of 11 (mixed) RNA 1: CACCCGUGCAAAAAUGCAGGGGUCUAAAACUGAGCGGAUAACCUCUCUAUGG RNA 2: GGGAAUGGAUCCACAUCUACGAAUUCGUACCAUAGAGAGGCUGUAUCCGCUCACCGAGAUCGGAAGAGCACACGU	11.7 ± 0.8 nM
target 1 insC 3' of 20,insG 3' of 19 (mixed) RNA 1: CACCCGUGCAAAAAUGCAGGGGUCUAAAACUGAGCGGAUAACCUCUCUAUGG RNA 2: GGGAAUGGAUCCACAUCUACGAAUUCGUACCACUGAGAGAGGUUAUCCGCUCACCGAGAUCGGAAGAGCACACGU	47 ± 7 nM
target 1 insC 3' of 14,insU 3' of 7 (mixed) RNA 1: CACCCGUGCAAAAAUGCAGGGGUCUAAAACUGAGCGGAUAACCUCUCUAUGG RNA 2: GGGAAUGGAUCCACAUCUACGAAUUCGUACCAUAGAGACGGUUAUCUCGCUCACCGAGAUCGGAAGAGCACACGU	41 ± 8 nM
target 1 C2G,U19A (mixed) RNA 1: CACCCGUGCAAAAAUGCAGGGGUCUAAAACUGAGCGGAUAACCUCUCUAUGG RNA 2: GGGAAUGGAUCCACAUCUACGAAUUCGUACCAAAGAGAGGUUAUCCGCUGACCGAGAUCGGAAGAGCACACGU	24.9 ± 2.7 nM
target 1 insA 3' of 10,insA 3' of 7 (mixed) RNA 1: CACCCGUGCAAAAAUGCAGGGGUCUAAAACUGAGCGGAUAACCUCUCUAUGG RNA 2: GGGAAUGGAUCCACAUCUACGAAUUCGUACCAUAGAGAGGUUAAUCACGCUCACCGAGAUCGGAAGAGCACACGU	10.4 ± 0.5 nM
target 1 insC 3' of 19,insU 3' of 6 (mixed) RNA 1: CACCCGUGCAAAAAUGCAGGGGUCUAAAACUGAGCGGAUAACCUCUCUAUGG RNA 2: GGGAAUGGAUCCACAUCUACGAAUUCGUACCAUCAGAGAGGUUAUCCUGCUCACCGAGAUCGGAAGAGCACACGU	46.6 ± 2.9 nM
target 1 insG 3' of 14,insA 3' of 12 (mixed) RNA 1: CACCCGUGCAAAAAUGCAGGGGUCUAAAACUGAGCGGAUAACCUCUCUAUGG RNA 2: GGGAAUGGAUCCACAUCUACGAAUUCGUACCAUAGAGAGGGAUUAUCCGCUCACCGAGAUCGGAAGAGCACACGU	23.7 ± 1.7 nM
target 1 C6A,U8G (mixed) RNA 1: CACCCGUGCAAAAAUGCAGGGGUCUAAAACUGAGCGGAUAACCUCUCUAUGG RNA 2: GGGAAUGGAUCCACAUCUACGAAUUCGUACCAUAGAGAGGUUAGCAGCUCACCGAGAUCGGAAGAGCACACGU	12.8 ± 0.7 nM
target 1 insU 3' of 18,insC 3' of 14 (mixed) RNA 1: CACCCGUGCAAAAAUGCAGGGGUCUAAAACUGAGCGGAUAACCUCUCUAUGG RNA 2: GGGAAUGGAUCCACAUCUACGAAUUCGUACCAUAUGAGACGGUUAUCCGCUCACCGAGAUCGGAAGAGCACACGU	73 ± 23 nM
target 1 insU 3' of 22,insC 3' of 3 (mixed) RNA 1: CACCCGUGCAAAAAUGCAGGGGUCUAAAACUGAGCGGAUAACCUCUCUAUGG RNA 2: GGGAAUGGAUCCACAUCUACGAAUUCGUACUCAUAGAGAGGUUAUCCGCUCCACCGAGAUCGGAAGAGCACACGU	28 ± 6 nM
target 1 insG 3' of 21,insA 3' of 19 (mixed) RNA 1: CACCCGUGCAAAAAUGCAGGGGUCUAAAACUGAGCGGAUAACCUCUCUAUGG RNA 2: GGGAAUGGAUCCACAUCUACGAAUUCGUACCGAUAAGAGAGGUUAUCCGCUCACCGAGAUCGGAAGAGCACACGU	64 ± 15 nM
target 1 insG 3' of 9,insC 3' of 5 (mixed) RNA 1: CACCCGUGCAAAAAUGCAGGGGUCUAAAACUGAGCGGAUAACCUCUCUAUGG RNA 2: GGGAAUGGAUCCACAUCUACGAAUUCGUACCAUAGAGAGGUUAGUCCGCCUCACCGAGAUCGGAAGAGCACACGU	11.3 ± 0.5 nM
target 1 U8C,U10C (mixed) RNA 1: CACCCGUGCAAAAAUGCAGGGGUCUAAAACUGAGCGGAUAACCUCUCUAUGG RNA 2: GGGAAUGGAUCCACAUCUACGAAUUCGUACCAUAGAGAGGUCACCCGCUCACCGAGAUCGGAAGAGCACACGU	22.4 ± 1.3 nM
target 1 insA 3' of 22,insU 3' of 6 (mixed) RNA 1: CACCCGUGCAAAAAUGCAGGGGUCUAAAACUGAGCGGAUAACCUCUCUAUGG RNA 2: GGGAAUGGAUCCACAUCUACGAAUUCGUACACAUAGAGAGGUUAUCCUGCUCACCGAGAUCGGAAGAGCACACGU	13.6 ± 0.6 nM
target 1 insU 3' of 22,insA 3' of 22 (mixed) RNA 1: CACCCGUGCAAAAAUGCAGGGGUCUAAAACUGAGCGGAUAACCUCUCUAUGG RNA 2: GGGAAUGGAUCCACAUCUACGAAUUCGUACUACAUAGAGAGGUUAUCCGCUCACCGAGAUCGGAAGAGCACACGU	4.11 ± 0.31 nM
target 1 G12A,A14C (mixed) RNA 1: CACCCGUGCAAAAAUGCAGGGGUCUAAAACUGAGCGGAUAACCUCUCUAUGG RNA 2: GGGAAUGGAUCCACAUCUACGAAUUCGUACCAUAGAGCGAUUAUCCGCUCACCGAGAUCGGAAGAGCACACGU	30.5 ± 2.6 nM
target 1 insC 3' of 19,insA 3' of 15 (mixed) RNA 1: CACCCGUGCAAAAAUGCAGGGGUCUAAAACUGAGCGGAUAACCUCUCUAUGG RNA 2: GGGAAUGGAUCCACAUCUACGAAUUCGUACCAUCAGAGAAGGUUAUCCGCUCACCGAGAUCGGAAGAGCACACGU	36 ± 4 nM
target 1 G13U,G15U (mixed) RNA 1: CACCCGUGCAAAAAUGCAGGGGUCUAAAACUGAGCGGAUAACCUCUCUAUGG RNA 2: GGGAAUGGAUCCACAUCUACGAAUUCGUACCAUAGAUAUGUUAUCCGCUCACCGAGAUCGGAAGAGCACACGU	55 ± 19 nM
target 1 insA 3' of 3,insA 3' of 3 (mixed) RNA 1: CACCCGUGCAAAAAUGCAGGGGUCUAAAACUGAGCGGAUAACCUCUCUAUGG RNA 2: GGGAAUGGAUCCACAUCUACGAAUUCGUACCAUAGAGAGGUUAUCCGCUAACACCGAGAUCGGAAGAGCACACGU	7.5 ± 0.6 nM
target 1 insU 3' of 9,insA 3' of 7 (mixed) RNA 1: CACCCGUGCAAAAAUGCAGGGGUCUAAAACUGAGCGGAUAACCUCUCUAUGG RNA 2: GGGAAUGGAUCCACAUCUACGAAUUCGUACCAUAGAGAGGUUAUUCACGCUCACCGAGAUCGGAAGAGCACACGU	9.5 ± 0.4 nM
target 1 insA 3' of 12,insA 3' of 11 (mixed) RNA 1: CACCCGUGCAAAAAUGCAGGGGUCUAAAACUGAGCGGAUAACCUCUCUAUGG RNA 2: GGGAAUGGAUCCACAUCUACGAAUUCGUACCAUAGAGAGGAUAUAUCCGCUCACCGAGAUCGGAAGAGCACACGU	29 ± 5 nM
target 1 insC 3' of 13,insU 3' of 12 (mixed) RNA 1: CACCCGUGCAAAAAUGCAGGGGUCUAAAACUGAGCGGAUAACCUCUCUAUGG RNA 2: GGGAAUGGAUCCACAUCUACGAAUUCGUACCAUAGAGAGCGUUUAUCCGCUCACCGAGAUCGGAAGAGCACACGU	11.1 ± 0.4 nM
